Reference: US20190076445A1 (UNIVERSITY OF CINCINNATI, published 2019)
One block for each binder: values may come before it.

Target: T1, human FcϵRIα (human, UniProt P12319 26-257)
T1 construct: whole, on cells; also called huFcϵRIα
T1 sequence (looked up): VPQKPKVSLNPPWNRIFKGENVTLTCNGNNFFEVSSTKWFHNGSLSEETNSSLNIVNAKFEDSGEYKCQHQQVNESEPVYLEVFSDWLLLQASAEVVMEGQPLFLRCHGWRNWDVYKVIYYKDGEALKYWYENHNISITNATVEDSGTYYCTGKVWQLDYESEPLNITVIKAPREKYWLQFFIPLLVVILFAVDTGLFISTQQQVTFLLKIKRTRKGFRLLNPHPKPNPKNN
Assay: summary of Examples 1-7 (huFcϵRIα mice, peritoneal mast cells, flow cytometry)

binding result: binds
B1: IE7 (antibody, mouse IgG1, V domains shown)
VH: QVQLQESGGDVVKPGGSLKLSCAASGFTFSFYGMSWVRQTPDKKLEWVATISGGGNYTYYPDSVKGRFTISRDNAMNTLYLQMNSLKSEDTAMYYCVRAYYGNWNSYWGQGTLVTVS
VL: DIVMTQTPSSMYASLGERVTITCKASQDINNYLSWFQQKPGRSPKTLIYRANRLMDGVPSRIRGSGSGQDYSLTISSLEYEDMGIYYCLLYNEFPWMFGGGTKLEIKR
notes: Mouse IgG1 mAb from a hybridoma (ATCC PTA-125115); also called anti-FcϵRIα monoclonal antibody IE7; anti-huFcϵRIα mAb

binding result: binds
B2: IB10 (antibody, V domains shown)
VH: QVQLQQPGAELVRPGASVKLSCKASGYSFTSYWMNWVNQRPGQGLEWIGMIHPSDSETRLNPNFKDRATLTVDKSSSTAYMQLSSPTSEDSAVYYCARGSLYDGYLFLYWGQGTLVTVSA
VL: DIVMTQSPLSLPVSLGDQASISCRSSQSILHSNGDTYLEWYLQKPGQSPKLLIYKVSNRFSGVPDRFSGSGSGTDFTLKISRVEAEDLGVYYCFQGSYVPFTFGSGTKLEIKR
notes: mAb from a hybridoma (ATCC PTA-125116); also called anti-FcϵRIα monoclonal antibody IB10; anti-huFcϵRIα mAb
